# Source: the RNAGym collection of RNA variant scans (doi:10.7554/elife.80360)
# B1: HDV Ribozyme (parent)
# chain: GGCCGGCAUGGUCCCAGCCUCCUCGCUGGCGCCGGCUGGGCAACAUUCCGAGGGGACCGUCCCCUCGGUAAUGGCGAAUGGGACCCA
# Variants of: B1
# Assay: self-cleavage, relative activity (ratio to wild type); higher = more cleavage; co-transcriptional
row,Variant,self-cleavage
1,GGCCGGCAGGGUCCCAGCCUCCUCGCUGGCGCCGGCUGGGCAACAUUCCGAGGGGACCGUCCCCUCGGUAAUGGCGAAUGGGACUCA [U9G C85U],1.14
2,GGCCGGCAGGGUCCCAGCCUCCUCGCUGGCGCCGGCUGGGCAACAUUCCGAGGGGACCGUCCCCUCGGUAAUGGCGAAUGGGACGCA [U9G C85G],0.895
3,GGCCGGCAGGGUUCCAGCCUCCUCGCUGGCGCCGGCUGGGCAACAUUCCGAGGGGACCGUCCCCUCGGUAAUGGCGAAUGGGACCCA [U9G C13U],1.07
4,GGCCGGCAGGGUCCCAGCCUCCUUGCUGGCGCCGGCUGGGCAACAUUCCGAGGGGACCGUCCCCUCGGUAAUGGCGAAUGGGACCCA [U9G C24U],0.767
5,GGCCGGCAGGGUCCCAGCCUCCUAGCUGGCGCCGGCUGGGCAACAUUCCGAGGGGACCGUCCCCUCGGUAAUGGCGAAUGGGACCCA [U9G C24A],0.525
6,GGCCGGCAGGGUCCCAGCCUCCUCGCUGGCGCCGGCUGGGCAACAUUCCGAGGGGACCGUCCCCUUGGUAAUGGCGAAUGGGACCCA [U9G C66U],0.727
7,GGCCGGCAGGGUCCCAGCCUCCUCGCUGGCGCCGGCUGGGCAACAUUCCGAGGGGACCGUCCCCUGGGUAAUGGCGAAUGGGACCCA [U9G C66G],1.19
8,GGCCGGCAGGGUCCCAGCCUCCUCGCUGGCGCCGGCUGGGCAACAUUCUGAGGGGACCGUCCCCUCGGUAAUGGCGAAUGGGACCCA [U9G C49U],0.776
9,GGCCGGCAGGGUCCCAGCCUCCUCGCUGGCGCCGGCUGGGCAACAUUCAGAGGGGACCGUCCCCUCGGUAAUGGCGAAUGGGACCCA [U9G C49A],1.11
10,GGCCGGCAGGGUCCCAGCCUCCUCCCUGGCGCCGGCUGGGCAACAUUCCGAGGGGACCGUCCCCUCGGUAAUGGCGAAUGGGACCCA [U9G G25C],0
11,GGCCGGCAGGGUCCAAGCCUCCUCGCUGGCGCCGGCUGGGCAACAUUCCGAGGGGACCGUCCCCUCGGUAAUGGCGAAUGGGACCCA [U9G C15A],1.21
12,GGCCGGCAGGGUCCUAGCCUCCUCGCUGGCGCCGGCUGGGCAACAUUCCGAGGGGACCGUCCCCUCGGUAAUGGCGAAUGGGACCCA [U9G C15U],0.962
13,GGCCGGCAGGGUCCCAGCCUCCUCGCUGGCGCCGGCUGGGCAACAUUCCGAGGGGACCGUCCUCUCGGUAAUGGCGAAUGGGACCCA [U9G C63U],1.07
14,GGCCGGCAGGGUCCCAGCCUGCUCGCUGGCGCCGGCUGGGCAACAUUCCGAGGGGACCGUCCCCUCGGUAAUGGCGAAUGGGACCCA [U9G C21G],0
15,GGCCGGCAGGGUCCCAGCCUCCUCGCUGGCGCCGGCUGGGCAACAUUCCGAGGGGACCGUCCCCUCGGUAAUGGCGAAUGGGACCCU [U9G A87U],0.853
16,GGCCGGCAGGGUCCCAGCCUCCUCGCUGGCCCCGGCUGGGCAACAUUCCGAGGGGACCGUCCCCUCGGUAAUGGCGAAUGGGACCCA [U9G G31C],0.378

row,Variant,self-cleavage
1,GGCCGGCAGGGUCCCAGCGUCCUCGCUGGCGCCGGCUGGGCAACAUUCCGAGGGGACCGUCCCCUCGGUAAUGGCGAAUGGGACCCA [U9G C19G],0
2,GGCCGGCAGGGUCCCAGCUUCCUCGCUGGCGCCGGCUGGGCAACAUUCCGAGGGGACCGUCCCCUCGGUAAUGGCGAAUGGGACCCA [U9G C19U],0.119
3,GGCCGGCAGGCUCCCAGCCUCCUCGCUGGCGCCGGCUGGGCAACAUUCCGAGGGGACCGUCCCCUCGGUAAUGGCGAAUGGGACCCA [U9G G11C],0.594
4,GGCCGGCAGGUUCCCAGCCUCCUCGCUGGCGCCGGCUGGGCAACAUUCCGAGGGGACCGUCCCCUCGGUAAUGGCGAAUGGGACCCA [U9G G11U],0.532
5,GGCCGGCAGGGUCCCAGCCUCCUCGCUGGCGCCGGCUGGGCAACGUUCCGAGGGGACCGUCCCCUCGGUAAUGGCGAAUGGGACCCA [U9G A45G],0.684
6,GGCCGGCAGGGUCCCAGCCUCCUCGCUGGCGCCGGCUGGGCAACUUUCCGAGGGGACCGUCCCCUCGGUAAUGGCGAAUGGGACCCA [U9G A45U],0.692
7,GGCCGGCACGGUCCCAGCCUCCUCGCUGGCGCCGGCUGGGCAACAUUCCGAGGGGACCGUCCCCUCGGUAAUGGCGAAGGGGACCCA [U9C U79G],0.519
8,GGCCGGCAGGGUCCCAGCCUCCUCGCUGGCGCCGGCUGGGCAACAUUCCGAGGGGACCGUCCCCUCGGUAAUGGCGAAUGGGUCCCA [U9G A83U],0.453
9,GGCCGGCAGGGUCCCAGCCUCCUCGCUGGCGCCGGCUGGGCAACAUUCCGAGGGGACCGUCCCCUCGGUAAUGGCGAAUGGGCCCCA [U9G A83C],0.554
10,GGCCGGCAGGGUCCCAGCCUCCUCGCUGGCGCCGGCUGGGCAACAUUCCGAGGGGACCGUCCCCUCGGUAAUGGCGAAUGGGGCCCA [U9G A83G],0.525
11,GGCCGGCAGGGUCCCAGCCUCCUCGCUAGCGCCGGCUGGGCAACAUUCCGAGGGGACCGUCCCCUCGGUAAUGGCGAAUGGGACCCA [U9G G28A],0.0573
12,GGCCGGCAGGGUCCCAGCCUCCUCGCUCGCGCCGGCUGGGCAACAUUCCGAGGGGACCGUCCCCUCGGUAAUGGCGAAUGGGACCCA [U9G G28C],0.222
13,GGCCGGCAGGGUCCCAGCCUCCUCGCUGGCGCCGGCUGGGCAACAUUCCGAGGGGACCGUCCCCUCGGUAAUGGCGCAUGGGACCCA [U9G A77C],0.185
14,GGCCGGCAGGGUCCCAGCCUCCUCGCUGGCGCCGGCUGGGCAACAUUCCGAGGGGACCGUCCCCUCGGUAAUGGUGAAUGGGACCCA [U9G C75U],0.222
15,GGCCGGCAGGGUCCCAGCCUCCUCGCUGGCGCCGGCUGGGCAACAUUCCGAGGGGUCCGUCCCCUCGGUAAUGGCGAAUGGGACCCA [U9G A56U],1.01
16,GGCCGGCAGGGUCCCAGCCUCCUCGCUGGCGCCGGCUGGGCAUCAUUCCGAGGGGACCGUCCCCUCGGUAAUGGCGAAUGGGACCCA [U9G A43U],0.886
